# Measured values from patent US11278600B2, “Human alpha-galactosidase variants” (Codexis, Inc., priority 2014, dated 2022).
# Substitutions are numbered along the chain they refer to.
# B1: 416 (protein)
# chain: LDNGLARTPTMGWLHWERFMCNLDCQEEPDSCISEKLFMEMAERMVSEGWKDAGYEYLCIDDCWMAPQRDSEGRLQADPQRFPHGIRQLANYVHSKGLKLGIYADVGNKTCAGFPGSFGYYDIDAQTFADWGVDLLKFDGCYCDSLENLADGYKHMSLALNGTGRSIVYSCEWPLYMWPFQKPNYTEIRQYCNHWRNFADIDDSWKSIKSILDWTSRNQERIVDVAGPGGWNDPDMLVIGNFGLSWDQQVTQMALWAIMAAPLFMSNDLRHISPQAKALLQDKDVIAINQDPLGKQGYQLRKGDNFEVWERPLSGDAWAVAIINRQEIGGPRSYTIPVASLGKGVACNPACFITQLLPVKRQLGFYNWTSRLKSHINPTGTVLLQLENTMQMSLKDLL
# modifications: Synthetic Polypeptide sequence of Variant No. 416 of mature Human GLA
# B2: 419 (protein)
# chain: B1 chain with G162R, S166E
# modifications: Synthetic Polypeptide sequence of Variant No. 419 of mature Human GLA
# B3: 364 (protein)
# chain: B1 chain with M39H, G162R
# modifications: Synthetic Polypeptide sequence of Variant No. 364 of mature Human GLA
# B4: 428 (protein)
# chain: B1 chain with G162R, M259S
# modifications: Synthetic Polypeptide sequence of Variant No. 428 of mature Human GLA
# B5: 363 (protein)
# chain: B1 chain with S47D, G162R
# modifications: Synthetic Polypeptide sequence of Variant No. 363 of mature Human GLA
# B6: 417 (protein)
# chain: B1 chain with G162S
# modifications: Synthetic Polypeptide sequence of Variant No. 417 of mature Human GLA
# B7: 423 (protein)
# chain: B1 chain with G162A
# modifications: Synthetic Polypeptide sequence of Variant No. 423 of mature Human GLA
# B8: 427 (protein)
# chain: B1 chain with G162R, L263G
# modifications: Synthetic Polypeptide sequence of Variant No. 427 of mature Human GLA
# B9: 426 (protein)
# chain: B1 chain with G162R, M259E
# modifications: Synthetic Polypeptide sequence of Variant No. 426 of mature Human GLA
# B10: 424 (protein)
# chain: B1 chain with G162R, L255E
# modifications: Synthetic Polypeptide sequence of Variant No. 424 of mature Human GLA
# B11: 422 (protein)
# chain: B1 chain with L158G, G162R
# modifications: Synthetic Polypeptide sequence of Variant No. 422 of mature Human GLA
# B12: 418 (protein)
# chain: B1 chain with N161E, G162R
# modifications: Synthetic Polypeptide sequence of Variant No. 418 of mature Human GLA
# B13: 429 (protein)
# chain: B1 chain with G162R, L255C
# modifications: Synthetic Polypeptide sequence of Variant No. 429 of mature Human GLA
# B14: 420 (protein)
# chain: B1 chain with G162R, S166T
# modifications: Synthetic Polypeptide sequence of Variant No. 420 of mature Human GLA
# B15: 425 (protein)
# chain: B1 chain with G162R, H271E
# modifications: Synthetic Polypeptide sequence of Variant No. 425 of mature Human GLA
# B16: 421 (protein)
# chain: B1 chain with G162Q
# modifications: Synthetic Polypeptide sequence of Variant No. 421 of mature Human GLA
# Test: HTP-analysis of yeast culture supernatants, no challenge (MUGal hydrolysis)
# Type: biochemical
# Conditions: activity of the variant/activity of Rd4BB (SEQ ID NO: 15)
# Procedure, shortened: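 GLA variants were expressed in INVSc1 yeast grown in SD-Ura broth with glucose at 30° C., and culture supernatants were collected after 66-84 h. Supernatant was mixed with McIlvaine buffer pH 4.8 and MUGal (2 mM stock) in 50 mM citrate, 200 mM KCl, pH 4.6, incubated at 37° C. for 30-180 minutes, then quenched with sodium carbonate.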
row,Molecule,Relative Activity of GLA Variants After No Challenge (NC)
1,B1,+ (0.5 to 1.5 relative activity over Rd4BB (SEQ ID NO: 15))
2,B2,+ (0.5 to 1.5 relative activity over Rd4BB (SEQ ID NO: 15))
3,B3,+ (0.5 to 1.5 relative activity over Rd4BB (SEQ ID NO: 15))
4,B4,+ (0.5 to 1.5 relative activity over Rd4BB (SEQ ID NO: 15))
5,B5,+ (0.5 to 1.5 relative activity over Rd4BB (SEQ ID NO: 15))
6,B6,+ (0.5 to 1.5 relative activity over Rd4BB (SEQ ID NO: 15))
7,B7,+ (0.5 to 1.5 relative activity over Rd4BB (SEQ ID NO: 15))
8,B8,+ (0.5 to 1.5 relative activity over Rd4BB (SEQ ID NO: 15))
9,B9,+ (0.5 to 1.5 relative activity over Rd4BB (SEQ ID NO: 15))
10,B10,+ (0.5 to 1.5 relative activity over Rd4BB (SEQ ID NO: 15))
11,B11,+ (0.5 to 1.5 relative activity over Rd4BB (SEQ ID NO: 15))
12,B12,+ (0.5 to 1.5 relative activity over Rd4BB (SEQ ID NO: 15))
13,B13,+ (0.5 to 1.5 relative activity over Rd4BB (SEQ ID NO: 15))
14,B14,+ (0.5 to 1.5 relative activity over Rd4BB (SEQ ID NO: 15))
15,B15,+ (0.5 to 1.5 relative activity over Rd4BB (SEQ ID NO: 15))
16,B16,+ (0.5 to 1.5 relative activity over Rd4BB (SEQ ID NO: 15))

# Test: HTP-analysis of supernatants pretreated with base (MUGal hydrolysis)
# Type: biochemical
# Conditions: activity of the variant/activity of Rd4BB (SEQ ID NO: 15); challenge at pH 9.65
# Procedure, shortened: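 Fluorescence of released 4-MU (Ex 355 nm, Em 448 nm) after carbonate quench reports MUGal hydrolysis by GLA variants secreted from INVSc1 yeast. Before the acidic (pH 4.3-4.8) 30-180 min reaction at 37° C, supernatants had been pre-incubated at pH 7.0-9.7 for 1-18 h at 37° C.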
row,Molecule,Relative Activity of GLA Variants After Challenge at pH 9.65
1,B1,− (<0.5 relative activity over Rd4BB (SEQ ID NO: 15))
2,B2,+ (0.5 to 1.5 relative activity over Rd4BB (SEQ ID NO: 15))
3,B3,− (<0.5 relative activity over Rd4BB (SEQ ID NO: 15))
4,B4,− (<0.5 relative activity over Rd4BB (SEQ ID NO: 15))
5,B5,+ (0.5 to 1.5 relative activity over Rd4BB (SEQ ID NO: 15))
6,B6,− (<0.5 relative activity over Rd4BB (SEQ ID NO: 15))
7,B7,+ (0.5 to 1.5 relative activity over Rd4BB (SEQ ID NO: 15))
8,B8,− (<0.5 relative activity over Rd4BB (SEQ ID NO: 15))
9,B9,− (<0.5 relative activity over Rd4BB (SEQ ID NO: 15))
10,B10,− (<0.5 relative activity over Rd4BB (SEQ ID NO: 15))
11,B11,− (<0.5 relative activity over Rd4BB (SEQ ID NO: 15))
12,B12,− (<0.5 relative activity over Rd4BB (SEQ ID NO: 15))
13,B13,− (<0.5 relative activity over Rd4BB (SEQ ID NO: 15))
14,B14,− (<0.5 relative activity over Rd4BB (SEQ ID NO: 15))
15,B15,+ (0.5 to 1.5 relative activity over Rd4BB (SEQ ID NO: 15))
16,B16,− (<0.5 relative activity over Rd4BB (SEQ ID NO: 15))

# Test: HTP-analysis of supernatants pretreated with acid (MUGal hydrolysis)
# Type: biochemical
# Conditions: activity of the variant/activity of Rd4BB (SEQ ID NO: 15); challenge at pH 3.7
# Procedure, shortened: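 GLA variants were secreted from INVSc1 yeast grown 66-84 h at 30° C. in SD-Ura with 2% glucose; supernatants were mixed with McIlvaine buffer pH 3.3-4.3 and held at 37° C. for 1-3 h. Residual activity on MUGal at pH 4.8 was then measured by fluorescence.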
row,Molecule,Relative Activity of GLA Variants After Challenge at pH 3.7
1,B1,+ (0.5 to 1.5 relative activity over Rd4BB (SEQ ID NO: 15))
2,B2,+ (0.5 to 1.5 relative activity over Rd4BB (SEQ ID NO: 15))
3,B3,+ (0.5 to 1.5 relative activity over Rd4BB (SEQ ID NO: 15))
4,B4,+ (0.5 to 1.5 relative activity over Rd4BB (SEQ ID NO: 15))
5,B5,+ (0.5 to 1.5 relative activity over Rd4BB (SEQ ID NO: 15))
6,B6,+ (0.5 to 1.5 relative activity over Rd4BB (SEQ ID NO: 15))
7,B7,+ (0.5 to 1.5 relative activity over Rd4BB (SEQ ID NO: 15))
8,B8,− (<0.5 relative activity over Rd4BB (SEQ ID NO: 15))
9,B9,− (<0.5 relative activity over Rd4BB (SEQ ID NO: 15))
10,B10,+ (0.5 to 1.5 relative activity over Rd4BB (SEQ ID NO: 15))
11,B11,+ (0.5 to 1.5 relative activity over Rd4BB (SEQ ID NO: 15))
12,B12,+ (0.5 to 1.5 relative activity over Rd4BB (SEQ ID NO: 15))
13,B13,+ (0.5 to 1.5 relative activity over Rd4BB (SEQ ID NO: 15))
14,B14,++ (>1.5 to 2.5 relative activity over Rd4BB (SEQ ID NO: 15))
15,B15,− (<0.5 relative activity over Rd4BB (SEQ ID NO: 15))
16,B16,+ (0.5 to 1.5 relative activity over Rd4BB (SEQ ID NO: 15))
